{"source": "paper PMC12905440", "about": "“Biochemical principles of miRNA targeting in flies”", "binders": {"B1": {"name": "let-7 guide / g2-21 complementary target (dsRNA)", "RNA 1": "GAUACUAUACAACCUACUACCUCAACCU", "RNA 2": "UGAGGUAGUAGGUUGUAUAGU", "modifications": "2'-O-methyl C and U around a phosphorothioate (CmCpsmU) in target"}, "B2": {"name": "let-7 guide / g2-21 target, G:U at positions 4-5 (dsRNA)", "RNA 1": "GAUACUAUACAACCUACUAUUUCAACCU", "RNA 2": "UGAGGUAGUAGGUUGUAUAGU", "modifications": "2'-O-methyl C and U around a phosphorothioate (CmCpsmU) in target"}, "B3": {"name": "miR-11 / 6mer-A1 (mixed)", "RNA 1": "GUGAUA", "RNA 2": "CAUCACAGUCUGAGUUCUUGC", "modifications": "guide 5' phosphate"}, "B4": {"name": "miR-11 / 6mer (mixed)", "RNA 1": "UGUGAU", "RNA 2": "CAUCACAGUCUGAGUUCUUGC", "modifications": "guide 5' phosphate"}, "B5": {"name": "let-7 / 8mer (mixed)", "RNA 1": "CUACCUCA", "RNA 2": "UGAGGUAGUAGGUUGUAUAGU", "modifications": "guide 5' phosphate"}, "B6": {"name": "let-7 guide / g2-21 target, G:U at position 4 (dsRNA)", "RNA 1": "GAUACUAUACAACCUACUACUUCAACCU", "RNA 2": "UGAGGUAGUAGGUUGUAUAGU", "modifications": "2'-O-methyl C and U around a phosphorothioate (CmCpsmU) in target"}}, "key": {"[1]": {"molecular_target": "T1, Ago1 (RISC, embryo lysate) (Drosophila w[*]; AGO2[414] embryos, 0-8 …, UniProt A1Z9J5 1-950)", "T1 sequence (A1Z9J5 entry or part of it)": "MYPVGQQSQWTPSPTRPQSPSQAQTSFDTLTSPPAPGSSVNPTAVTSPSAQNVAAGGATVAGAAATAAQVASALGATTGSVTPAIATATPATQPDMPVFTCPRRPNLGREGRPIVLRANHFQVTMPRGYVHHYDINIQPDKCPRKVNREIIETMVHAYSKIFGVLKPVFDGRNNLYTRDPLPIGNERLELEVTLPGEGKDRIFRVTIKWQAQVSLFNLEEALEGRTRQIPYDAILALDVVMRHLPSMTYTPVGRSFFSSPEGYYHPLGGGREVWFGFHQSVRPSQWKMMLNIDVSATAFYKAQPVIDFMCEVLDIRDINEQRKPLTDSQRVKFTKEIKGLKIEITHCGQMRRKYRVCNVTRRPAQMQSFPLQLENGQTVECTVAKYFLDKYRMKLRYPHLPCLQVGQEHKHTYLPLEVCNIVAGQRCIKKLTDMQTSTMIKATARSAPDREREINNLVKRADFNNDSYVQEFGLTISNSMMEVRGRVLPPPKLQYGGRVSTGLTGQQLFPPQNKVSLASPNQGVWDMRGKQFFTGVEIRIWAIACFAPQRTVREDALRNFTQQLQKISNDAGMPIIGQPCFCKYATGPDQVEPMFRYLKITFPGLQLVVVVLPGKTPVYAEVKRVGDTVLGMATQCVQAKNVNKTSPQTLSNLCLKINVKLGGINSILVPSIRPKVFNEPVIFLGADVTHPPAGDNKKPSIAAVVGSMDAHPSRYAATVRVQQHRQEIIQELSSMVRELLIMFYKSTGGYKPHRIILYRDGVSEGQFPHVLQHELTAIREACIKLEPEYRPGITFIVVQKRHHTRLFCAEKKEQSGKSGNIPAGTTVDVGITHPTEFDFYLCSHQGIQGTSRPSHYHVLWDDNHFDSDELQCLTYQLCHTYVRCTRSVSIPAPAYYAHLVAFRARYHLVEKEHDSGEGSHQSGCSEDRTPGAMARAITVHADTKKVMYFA", "experiment": "competition; let-7 guide; reference; RBNS: 20 mM HEPES-KOH pH 7.9, 100 mM KOAc, 3.5 mM Mg(OAc)2, 0.05% CHAPS, 2 mM DTT, 8% glycerol, BSA, tRNA, 25 C, 2 h; filter binding: 25 mM HEPES-KOH pH 7.9, 110 mM KOAc, 3.5 mM Mg(OAc)2, 2 mM DTT, 25 C; competition: 18 mM HEPES-KOH pH 7.4, 100 mM KOAc, 3 mM Mg(OAc)2, 5 mM DTT, 25 C", "settings": "protein: native; g2-21 paired"}, "[2]": {"molecular_target": "T1, Ago1 (RISC, embryo lysate)", "experiment": "competition; let-7 guide; RBNS: 20 mM HEPES-KOH pH 7.9, 100 mM KOAc, 3.5 mM Mg(OAc)2, 0.05% CHAPS, 2 mM DTT, 8% glycerol, BSA, tRNA, 25 C, 2 h; filter binding: 25 mM HEPES-KOH pH 7.9, 110 mM KOAc, 3.5 mM Mg(OAc)2, 2 mM DTT, 25 C; competition: 18 mM HEPES-KOH pH 7.4, 100 mM KOAc, 3 mM Mg(OAc)2, 5 mM DTT, 25 C", "settings": "protein: native; g2-21 paired, G:U at g4 and g5"}, "FLAG-Ago1 (RISC) [3]": {"molecular_target": "T2, FLAG-Ago1 (RISC) (Drosophila melanogaster, UniProt A1Z9J5 1-950)", "T2 sequence (A1Z9J5 entry or part of it)": "as above", "experiment": "RNA Bind-n-Seq (filter binding, sequencing, MLE); miR-11 guide; 20 mM HEPES-KOH pH 7.9, 100 mM potassium acetate, 3.5 mM magnesium acetate, 0.05% CHAPS, 2 mM DTT, 8% glycerol, 0.05 ug/ul BSA, 0.01 mg/ml yeast tRNA, 100 nM RNA library, 25 C, 2 h", "settings": "protein: recombinant; tags: FLAG"}, "FLAG-Ago1 (RISC) [4]": {"molecular_target": "T2, FLAG-Ago1 (RISC)", "experiment": "RNA Bind-n-Seq (filter binding, sequencing, MLE); let-7 guide; 20 mM HEPES-KOH pH 7.9, 100 mM potassium acetate, 3.5 mM magnesium acetate, 0.05% CHAPS, 2 mM DTT, 8% glycerol, 0.05 ug/ul BSA, 0.01 mg/ml yeast tRNA, 100 nM RNA library, 25 C, 2 h", "settings": "protein: recombinant; tags: FLAG; t2-t8 plus t1A"}, "[5]": {"molecular_target": "T1, Ago1 (RISC, embryo lysate)", "experiment": "competition; let-7 guide; nearly same affinity as fully complementary; RBNS: 20 mM HEPES-KOH pH 7.9, 100 mM KOAc, 3.5 mM Mg(OAc)2, 0.05% CHAPS, 2 mM DTT, 8% glycerol, BSA, tRNA, 25 C, 2 h; filter binding: 25 mM HEPES-KOH pH 7.9, 110 mM KOAc, 3.5 mM Mg(OAc)2, 2 mM DTT, 25 C; competition: 18 mM HEPES-KOH pH 7.4, 100 mM KOAc, 3 mM Mg(OAc)2, 5 mM DTT, 25 C", "settings": "protein: native; g2-21 paired, G:U at g4"}}, "data": [{"binder": "B1", "values": [{"measurement": "binding result", "setting": "[1]", "result": "binds"}]}, {"binder": "B2", "values": [{"measurement": "binding signal", "setting": "[2]", "result": 120, "unit": "fold lower affinity"}]}, {"binder": "B3", "values": [{"measurement": "Kd", "setting": "FLAG-Ago1 (RISC) [3]", "result": "0.404 ± 0.0996", "unit": "nM"}]}, {"binder": "B4", "values": [{"measurement": "Kd", "setting": "FLAG-Ago1 (RISC) [3]", "result": "0.388 ± 0.0906", "unit": "nM"}]}, {"binder": "B5", "values": [{"measurement": "Kd", "setting": "FLAG-Ago1 (RISC) [4]", "result": "5 ± 1.69", "unit": "pM"}]}, {"binder": "B6", "values": [{"measurement": "binding result", "setting": "[5]", "result": "binds"}]}]}
